This is an account of results in the Human Domainome abundance scans (Beltran et al. 2025).

First the molecules themselves.
B1: V(D)J recombination-activating protein 2, residues 415 to 491; numbered along this chain, P55895 (parent)
chain: YWITCCPTCDVDINTWVPFYSTELNKPAMIYCSHGDGHWVHAQCMDLAERTLIHLSAGSNKYYCNEHVEIARALHTP

± gives the uncertainty stated by the source.

The variants in the data set derive from B1. The experiment in a line: abundance fitness (aPCA) (normalised: wild type 0, dead -1); higher = more abundant; growth selection in yeast, the domain comes from the species named. The conditions noted are these: Homo sapiens.
For YWITCCPPCDVDINTWVPFYSTELNKPAMIYCSHGDGHWVHAQCMDLAERTLIHLSAGSNKYYCNEHVEIARALHTP [T8P], the abundance fitness is -0.159 ± 0.3. For YWITCCPYCDVDINTWVPFYSTELNKPAMIYCSHGDGHWVHAQCMDLAERTLIHLSAGSNKYYCNEHVEIARALHTP [T8Y], the abundance fitness was -0.541 ± 0.45. The value for YWITCCPNCDVDINTWVPFYSTELNKPAMIYCSHGDGHWVHAQCMDLAERTLIHLSAGSNKYYCNEHVEIARALHTP [T8N] was 0.091 ± 0.18; that for YWITCCPQCDVDINTWVPFYSTELNKPAMIYCSHGDGHWVHAQCMDLAERTLIHLSAGSNKYYCNEHVEIARALHTP [T8Q] was -0.258 ± 0.2; that for YWITCCPSCDVDINTWVPFYSTELNKPAMIYCSHGDGHWVHAQCMDLAERTLIHLSAGSNKYYCNEHVEIARALHTP [T8S] was 0.129 ± 0.24. The value for YWITCCPVCDVDINTWVPFYSTELNKPAMIYCSHGDGHWVHAQCMDLAERTLIHLSAGSNKYYCNEHVEIARALHTP [T8V] was -0.196 ± 0.23; that for YWITCCPRCDVDINTWVPFYSTELNKPAMIYCSHGDGHWVHAQCMDLAERTLIHLSAGSNKYYCNEHVEIARALHTP [T8R] was -0.204 ± 0.2. The same measure for YWITCCPWCDVDINTWVPFYSTELNKPAMIYCSHGDGHWVHAQCMDLAERTLIHLSAGSNKYYCNEHVEIARALHTP [T8W]: -0.627 ± 0.41.

With YWITCCPTCDVDIDTWVPFYSTELNKPAMIYCSHGDGHWVHAQCMDLAERTLIHLSAGSNKYYCNEHVEIARALHTP [N14D], the abundance fitness came out at 0.385 ± 0.33. With YWITCCPTCDVDIKTWVPFYSTELNKPAMIYCSHGDGHWVHAQCMDLAERTLIHLSAGSNKYYCNEHVEIARALHTP [N14K], the abundance fitness was -0.004 ± 0.42.

As for YWITCCPTCDVDIRTWVPFYSTELNKPAMIYCSHGDGHWVHAQCMDLAERTLIHLSAGSNKYYCNEHVEIARALHTP [N14R], the abundance fitness is -0.137 ± 0.2. The same measure for YWITCCPTCDVDITTWVPFYSTELNKPAMIYCSHGDGHWVHAQCMDLAERTLIHLSAGSNKYYCNEHVEIARALHTP [N14T]: 0.039 ± 0.16. On to YWITCCPTCDVDIVTWVPFYSTELNKPAMIYCSHGDGHWVHAQCMDLAERTLIHLSAGSNKYYCNEHVEIARALHTP [N14V], for which the abundance fitness was -0.149 ± 0.23. YWITCCPTCDVDIATWVPFYSTELNKPAMIYCSHGDGHWVHAQCMDLAERTLIHLSAGSNKYYCNEHVEIARALHTP [N14A]: the abundance fitness is -0.509 ± 0.4. The value for YWITCCPTCDVDIMTWVPFYSTELNKPAMIYCSHGDGHWVHAQCMDLAERTLIHLSAGSNKYYCNEHVEIARALHTP [N14M] was -0.01 ± 0.32; that for YWITCCPTCDVDIQTWVPFYSTELNKPAMIYCSHGDGHWVHAQCMDLAERTLIHLSAGSNKYYCNEHVEIARALHTP [N14Q] was -0.332 ± 0.29. The same measure for YWITCCPTCDVDISTWVPFYSTELNKPAMIYCSHGDGHWVHAQCMDLAERTLIHLSAGSNKYYCNEHVEIARALHTP [N14S]: -0.419 ± 0.33; for YWITCCPTCDVDIPTWVPFYSTELNKPAMIYCSHGDGHWVHAQCMDLAERTLIHLSAGSNKYYCNEHVEIARALHTP [N14P]: -0.346 ± 0.49. The same measure for YWITCCPTCDVDANTWVPFYSTELNKPAMIYCSHGDGHWVHAQCMDLAERTLIHLSAGSNKYYCNEHVEIARALHTP [I13A]: -0.149 ± 0.39.

For the variant YWITCCPTCDVDMNTWVPFYSTELNKPAMIYCSHGDGHWVHAQCMDLAERTLIHLSAGSNKYYCNEHVEIARALHTP [I13M], the abundance fitness is -0.284 ± 0.34. For the variant YWITCCPTCDVDWNTWVPFYSTELNKPAMIYCSHGDGHWVHAQCMDLAERTLIHLSAGSNKYYCNEHVEIARALHTP [I13W], the abundance fitness is -0.12 ± 0.23. The value for YWITCCPTCDVDENTWVPFYSTELNKPAMIYCSHGDGHWVHAQCMDLAERTLIHLSAGSNKYYCNEHVEIARALHTP [I13E] was 0.172 ± 0.29. The same measure for YWITCCPTCDVDLNTWVPFYSTELNKPAMIYCSHGDGHWVHAQCMDLAERTLIHLSAGSNKYYCNEHVEIARALHTP [I13L]: -0.098 ± 0.14; for YWITCCPTCDVDGNTWVPFYSTELNKPAMIYCSHGDGHWVHAQCMDLAERTLIHLSAGSNKYYCNEHVEIARALHTP [I13G]: -0.193 ± 0.14.

With YWITCCPTCDVDRNTWVPFYSTELNKPAMIYCSHGDGHWVHAQCMDLAERTLIHLSAGSNKYYCNEHVEIARALHTP [I13R], the abundance fitness was found to be 0.114 ± 0.14. The same measure for YWITCCPTCDVDSNTWVPFYSTELNKPAMIYCSHGDGHWVHAQCMDLAERTLIHLSAGSNKYYCNEHVEIARALHTP [I13S]: -0.264 ± 0.3; for YWITCCPTCDVDVNTWVPFYSTELNKPAMIYCSHGDGHWVHAQCMDLAERTLIHLSAGSNKYYCNEHVEIARALHTP [I13V]: -0.35 ± 0.14; for YWITCCPTCDVDCNTWVPFYSTELNKPAMIYCSHGDGHWVHAQCMDLAERTLIHLSAGSNKYYCNEHVEIARALHTP [I13C]: -0.059 ± 0.23. Regarding YWITCCPTCDVDTNTWVPFYSTELNKPAMIYCSHGDGHWVHAQCMDLAERTLIHLSAGSNKYYCNEHVEIARALHTP [I13T], the abundance fitness is -0.329 ± 0.22. The value for YWITCCPTCDVDINFWVPFYSTELNKPAMIYCSHGDGHWVHAQCMDLAERTLIHLSAGSNKYYCNEHVEIARALHTP [T15F] was 0.052 ± 0.36; that for YWITCCPTCDVDINAWVPFYSTELNKPAMIYCSHGDGHWVHAQCMDLAERTLIHLSAGSNKYYCNEHVEIARALHTP [T15A] was -0.341 ± 0.21. The value for YWITCCPTCDVDINGWVPFYSTELNKPAMIYCSHGDGHWVHAQCMDLAERTLIHLSAGSNKYYCNEHVEIARALHTP [T15G] was 0.055 ± 0.25. As to YWITCCPTCLVDINTWVPFYSTELNKPAMIYCSHGDGHWVHAQCMDLAERTLIHLSAGSNKYYCNEHVEIARALHTP [D10L], the abundance fitness was 0.102 ± 0.2.

As to YWITCCPTCTVDINTWVPFYSTELNKPAMIYCSHGDGHWVHAQCMDLAERTLIHLSAGSNKYYCNEHVEIARALHTP [D10T], the abundance fitness was 0.019 ± 0.21.

In the case of YWITCCPTCWVDINTWVPFYSTELNKPAMIYCSHGDGHWVHAQCMDLAERTLIHLSAGSNKYYCNEHVEIARALHTP [D10W], the abundance fitness turned out to be 0.045 ± 0.12.
